# Data from the supplement of paper PMC12636428.
# System: Saccharomyces cerevisiae
# Test: transcriptional activation domain activity (GFP:mCherry ratio, weighted mean of sorted bins, harmonized to initial dataset scale) (arbitrary fluorescence ratio units); higher = stronger transcriptional activation
# Details: beta-estradiol 1 µM; induction time 4 h
# Method in brief: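 In diploid yeast carrying a GFP reporter, barcoded protein tiles fused to an estradiol-inducible synthetic transcription factor were integrated at the URA3 locus. Cultures diluted 1:5 into SC with 1 uM beta-estradiol were kept at 30 °C for 4 hours, then sorted by GFP:mCherry ratio into 8 bins before barcode sequencing. Tiles with under 50 reads were excluded. The activation activity reported here is the read-weighted mean of bin median fluorescence, averaged across barcodes and linearly rescaled to the initial dataset.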
row,Sequence,transcriptional activation domain activity
1,MKLMLSLYLLRMIFSLLVFFLLSGNVVATLFGFSMCFLIRFGWCCVLSYVLSF,68500
2,GPLLFVEIRAGFFPLYYPFSFLCLSGFVFELGHYPSGSFVPGVLLSWSLNFII,53700
3,SIEDMTGWKLLHGDVFRAPPNGNILAPLVGSGCQLVYMATGLLMLSCLGILNP,41600
4,IDGVWFAYCHLSLFALLGEHISLNATNSEFPLVPSQSWKWDDFLFSISFLETL,71300
5,MGSCNLPFGHISLARGTLVLIRGWSFFLASQPPYGFIRWILFRSSFYFLCSWR,55900
6,MVKLLLTRLPYFCVLVYCVFRYPIATFCLDIFLFFKQLCQNAHAIQWPQISWL,77200
7,NCSFIFLMLNCILAAFCFYNLSSIMNGLVYFDQFSLIPPLHLGLVTLGMCVLL,46400
8,KPESKEKEEEEEETETETETETKPEAKEEPKEEPKEEVNNEKEAEDAAAAEAK,27200
9,LSPGKPHQGMVRVRSPNNMVAFVNLLVRLCDLGFPAHWISDYVQSMLMDKVVT,66400
10,GSTPGKTASTGRGTAGGKGVAAGSKAPASTRGGGGGTAGGGGKAGGANTKTAV,56000
11,QAAQESDEESEAPNPTAKTLSKRAAEAWKQLSASDKDKYKVLADKEREEHARL,28800
12,HCNGLLGNADLFEDPYQDELTSELHVLVTERLVNSWKDTILQQLCSCQDTTLS,83700
13,MGLGVLYHLSLLFPSFSFFYLSSSFPPFFFFFLLLWLFPISCLGFLVLFWTGS,61300
14,MFYNAQFVDCGPSALVMVLVLLAPYLPNPLQLRRAFTTRPPTVLFAVLGILET,61600
15,IHCLDSLFLLYMLTIFYLLWYSSLIFPLWCMISLYYFIVLSSTSLLGLSFISL,71500
16,LSLPPPLPFFPPLFPFFFLFFFYLLISFFFSFLFCGEMDLGWALQVAAATYSH,36700
17,MDDTERRTAKRSRFDQTEPEPKPRASRFDRRSRSPPARKPESRRSRSPIARPS,17000
18,IGLCYVIILAIICFQRIYVQPYLYGIEAYMNREICLCWLVLLSLNLSTLQFNQ,74300
19,NFGLMSGLYLYVCILGDSWCPSIDLIFNWMSYAYLWNVYIFLLEIIPVTLMVL,72100
20,RKKRRSTRRSRSREESSRRRGDDRRRNHSRDRSTTSRRRSRKSRSPSRDRSSR,32300
21,MPNCLNIRFFLFFLLKFLYAPLSFLLFPYPSHAYLFFHVLLLINCLFVDVIPV,54600

row,Sequence,transcriptional activation domain activity
1,MSLKEKLSIIHMKIRHRIEMTILLLHIFSIPLCLSFFMLCCSFPFFWPFVILY,77600
2,ILDDFFNDGACNEINVILDKAKVRRDFLDYFMPEKEVKAEGDRSIVYILSNPK,59200
3,MVSMQLSKLFIFSRVRRGGFFFCPCFSLVFLLFLFCIFFFHHFFSFHISFYLP,41400
4,RMLFPNVQELHWEAQNFEKSPLLNMFMGLHLTEIYFTFSAGSYAQMTWIPIMY,33300
5,WLAHSKKKTCDVCKHPYSFTKVYATDMPTRLPPVLLLRRVAQQSFFAMIFAVR,35900
6,IYVLHLFSTFPIFPLFPLFPIFLNFFIFLILILIFPIFPIFPIFPIFLIFPIF,52900
7,MGGAGDKVLICNCSSTDSFLRMFLLILVFFLIILLVCMDWSLRFLMMFVFLLV,19800
8,ANDDDGEEQEEQEEKPKKKRKRTASTPAETAGAGPSKPKPRPRPKKTSAVVPP,28200
9,MWEVLWAFSFLAGDIFVFFLSLALYIYPNHLVSPLLPGCVKPPVGMYWFLVFQ,44000
10,SASAAAKPAAAPLKKSTSGSLASKPAMSSTKPAAAPAAAPARRASVVPAKSSA,33900
11,SVASMNSNYLLPVNSHGYKHISNLDELDDLLSLTYSDNNLLSASNNSDFNNSN,88400
12,MPQSLTCRSASIIATQDCFDVIIFRLRFLLDIARGTLLLFRDHGRALTPFGRP,51100
13,LSSSPSAQMATNTNVVVVIGDDKRVKEVGDALKTKLGVKGGGKGMRWSGKFVG,26700
14,GKEKNHGRGERNGERTKAKGEGRGEEDSQRRGRRRESKERGRRRGGEPEETKG,49600
15,KWLCYVELMNILTLGWPLSNIHFYICKYCAGWFRKYNYLFGTGINGGAQIFVL,66700
16,ERAVVGLLRICLILATRPSLRDQIFVSFDLLAGLPPAIANAVAEQVVAGLILV,35700
17,MTNQPTTQDGPSPVKHRACDECRSRKLACSKEPDGCSRCKKEGIVCHYSAQKQ,28400
18,FCHIALFPSIGLKDTNYIPRAMDGVRFAHLESLHLQFNMYWLGPMYAWALHIL,52500
19,PKAEAPKAEAPKPKEEESKKETAKQESKPEPKKADASKIAAPAASKPPAPKPS,49200
20,SSSAESSKASSSKKVASTKPKSKSAGTKAKPAAKKPAKKAAPKKKKPAKRAAK,34500
21,MLCLTYLVFLRVYGHLLWVELGLFFFSFSKSNYHVIRHGLPFFCYNGAWMEFL,56900
